Measurements as given in the nanobody polyreactivity screen of Harvey et al. (2022).

Assay: yeast display, Sf9 membrane polyspecificity reagent, FACS + sequencing; frameworks hold sequencing errors
Summary of the method: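 Genes from sorted yeast were amplified by colony PCR, read by MiSeq 2 × 250 sequencing and filtered on CDR length. These cells carried a synthetic nanobody library in Saccharomyces cerevisiae BJ5465 and were sorted by FACS into low and high (top ~1%) gates on anti-HA and streptavidin fluorescence. Polyreactivity is labelled according to the gate of origin.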

Row | Sequence | polyreactivity (PSR sort gate)
1 | QVQLVESGGGLVQAGGSLRLSCAASGFIFRANAMGLYREAPGKERELVATISRSGGSTSYADSVKGRFTISRDNAKNTVYLQMNSLKPEDTAVYYCNKRTPYLRPIRDYWGQGTQVTVSS | high polyreactivity
2 | QVQLVESGGGLVQGGGSLRLSCAASGFIFDGNAMGWSRQAPGKEREFVASNSGSGDSTYYADSVKGRFTISRDNAKNTVYLQMNSLKPEDTAVYYCAYEGTPWASGNDYWGQGTQVTVSS | low polyreactivity
3 | QVQLVESGGVLVQAGGSLRLSCAASGITFIGYAMGWYRQAPGKERELVASITSGANTNYADSVKGRFTISRDNAKNTVYLQMNSVKAEDTAVYYCAAPEHGTYANILGEPLDYWGQGTQVTVSS | low polyreactivity
4 | QVQLVESGGGLFQAGGSLRLSCAASGLIFGYYDMGWYRQAPGKERELVASISRNGGCTYYADSVKGRFTISRDNAKNTVYLQMNRLKTEDTAVYYCARTGPWARYSHGLYKSDYWGQGTQVTVAS | high polyreactivity
5 | QVQLVESGGGLVQAGGSLRLSCAASGSIFWQYAMGWYRQAPGKERELVAAINWSGDTTYYADSVKGRFTISRDNAKNTVYLQMNSLKPEDTAVYYCAAVGGVSFGGSPKTHAGEDYWGQGTQVTVSS | low polyreactivity
6 | QVQLVESGGGLVQAGGSLRLSCAASGRNFHNYAMGWYRQATRKERELVAGISSRGGSTYYADSVKGRFTISRVNAKNTVYLQMNSLKPEVTAVYYCAKDKSPYGYATNQYRKYYYWGQGTQVTVSS | low polyreactivity
7 | QVQLQERGGGLVQAGGSLRLSCAASGSIFQYTLMGWYLQAPGKEREFVAAITDGANTNYADSVKGRFSISRDNAKNTVNLQMNSLKPEETAVYYCATDYGYTDRVTSGFDYWGLGTQVTVSS | low polyreactivity
8 | QVQLVESGGGLVQAGGSLRLSCAASGSIFTHYAMGWYRQAPGKERELVAAITWSGGSTYYADSVKGRFTISRDNAKYTVYLQMNSLKPEDTAVYYCNVAWVGVSLVYGPFEYDYWGQGTQVTVSS | high polyreactivity
9 | QVQLVESGGGLVQAGGSLRLSCAASGRTFYLYAMGWYRQAPGKERELVAAITSGGSTYYADSVKGRFTISRDNAKNTVYLQMNSLKPEDTAVYYCAAYAYLTAGTSRRRGYWGQGTQVTVSS | high polyreactivity
10 | QVQLVESGGGLVQAGGSLRLSCAASVRTFNFYASGLYRQATRKQRELVAAIRRGGSTNYADSVKGRFTISRDNAKNTVYLQMNSLIREDTAVYYCNKRVWYPYWTVDYWGQGTQVTVSS | low polyreactivity
11 | QVQLVESGGGLVQAGGSLRLSCAASGRTFFPYVMGWYRQAPGKERELVATITWGGVSTYYADSVKGRFTISRDNAKNTVYLQMNSLKPEDTAVYYCAARYYRWRTIPEYYYWGQGTQVTVSS | high polyreactivity
12 | QVQLVESGGGLVQAGGSLGLSCAASGSIFSDYAMGWYRQATGKERELVAAITQSGGSTYADSVKGRFTISRDNAKNTVYLQMISLKPEDTAVYYCAADEVPGFGYPPYPWFDYWGQGTQVTVSS | low polyreactivity
13 | QVQLVESGRGLVQAGCSLRLSCPASGIIFTTYDMGWYRQAPGKERELVAAISSSTTNTYYADSVKWRFTISRDNAMNTVYLQMNSLKPEETAVYYCAAPYKSNAGFDYWGQGTQVTVSS | low polyreactivity
14 | QVQLVESGGGLVQAGGSLRLSCAASGIIFYYYAMGWYRQAPGKERELVAAISKSGGSTYYADSVKGRFTISRDNAKNTVYLQMNRLKPEDTAVYYCAARGPSWLSYNYWGQGTQVTVSS | high polyreactivity
15 | QVQLVESGGGLVQAGGSLRLSCAASGIIFPEYDMGWYRQAPGKERELVAAITKSDGRTYYADSVKGRFTISRDNAKNTVYLQMNSLKPEDTAVYYCNADPRVVAYLGFDSWGQGTQVTVSS | low polyreactivity
16 | QVQLVESGGGLVQAGGSLRLSCAASGRTFYRYAMGWYRQAPGKEREFVARITTSGGSTYYADSVKGRFTISRDNAKNTVYLQMNSLKPDDTAVYYCNASGVTYAFLRFDYWGQGTQVTVSS | high polyreactivity
17 | QVQLVESGGGLVQAGGSLRLSCAASGYTLGTYAMGWYRQAPGKERELVAAITWSGGRTNYADSVKGRFTISRDNAKNTVYLQMNSLKPEDTAVYYCAARYYFPFRRFRRMDYWGQGTQVTVSS | high polyreactivity
18 | QVQLVESGGGLVQAGGSLRLSCAASRFTFTAYAMGWYRQAPGKERELVAAITGTGGSTKYADSVKGRFTISRDNAKNSVDLQMYSLKPEDTAVYYCAAIRFTLRRMDYWGHGTQVTVSS | high polyreactivity
19 | QVQLVESGGGLVQAGGSLRLSCAASGSIFAGNAMGWYRQAPGRERELVAGITFGDDSTYYADSVKGRFTISRDNAKNTVYLQMNSLKPEDTAVYYCATDMHPYNYYFYHYWVDAAYDYWGQGTQVTVSS | low polyreactivity
20 | QVQLVESGGGLVQAGGSLRLSCAASGSTFYWYAMGWYRQAPGKERELVAVITVRGGSTYYADSVKGRFTISRDNAKNTVYLQMNSLKPEDTAVYYCAAEPTSYLYKYWYDYWGEGTQVTVSS | low polyreactivity
21 | QVQLVESGGGLVQAGGSLRLSCAASGRIFSVNAMGWYRQAPGKERELVASISWSGGSTYYADSVKGRFTISRDNAKNTVYLQMNSLKPEDTAVYYCARGYWVYYPDGDYWGQGTQVTVSS | low polyreactivity
